The experiment deals with Sensor^BtsK (Stenotrophomonas maltophilia CGMCC …, labelled with the Monolith NT.115 Protein Labeling Kit Red NHS (a dye that reacts with amines)). Nature of the experiment: MST.

B1: BtsD^Δ(SP-GGDEF) (domain or fragment)
chain: APPLRDYAIDVWTSRNGLPHNSLRDIAQTPEGHLWFATWEGLVRYNGLDFTVFDRSTRPGLRDNGIGALLVDRQGGLWISDSRGNVSHRGNDGQWRVWEHQADTPQVLIQSMQMDSQGRLWLLYEGKGIGYLTPDKGIVYQAPAADLPMAMSFTKLVVDAQDRVWVGTLDGLVLRDNDGVLKRAPAAWGLGAGTGLSWPYRAPDGALWIVAGERLYRVEDDQLVLVHRLPGQLHMTSMLQDRHGDLWLGTENQGLLRISAHGLERLPAGLNLPGGRVVSLREDAEGSIWVGANGGLYRLRETLFSSYTERDGLSGDYVRTVLEDRDRQLWVGSASGLDLQTPDGRFRAVPLHNRGGKAPSVLSLAQGPDGDLWVGTFGDGVYRLDRDGSLRHNYAAADGMPGGNIRAISVDPQGRVWAGTQKGVVRIDGDRVQVSTAPGMPGGLITALEHDHQGNLWIGTIEGIRVLRGDHVQSIDLAPMGGGRSVFGFHQLGEAMWISSDRGLYRWRDGKLARVGLEQGMPVDAVFQLVPDRLGNVWISSNRGVLRTDMATLNAVADGRAPRVVVERYNEIDGMANAQANGSSGPSAILRQDGTFWVVTAGGLSTVDPQRLQRFRERPSPPAAIESVQVDGAPVHWEGPDRNYIPGGRRLAVSYVGLSYLMSDRIRYRTRLEGLDAGWVERGPQRSVEFVGLPPGDYTLHVSAAHPGGAWGQQEAVWSFTVEPFWWQRRSVQLLGGLLLLAGLVVLYRLLLQQLKASNLRLARRVDEATFDLQAKTVHLQALNQEKTELAER
Turning to B1, the affinity, expressed as Kd, was 3.17 µM.

These data come from paper PMC11404848 (2024).
